Source: the nanobody polyreactivity screen of Harvey et al. (2022)

Test: yeast display, Sf9 membrane polyspecificity reagent, FACS + sequencing; frameworks hold sequencing errors
Outline: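 In a synthetic yeast display library (Saccharomyces cerevisiae BJ5465), nanobody expression was induced with galactose for 36–48 hours. FACS gates were set low and high (top ~1%) using anti-HA fluorescence for expression and streptavidin fluorescence for binding of the Sf9 membrane reagent. Each polyreactivity label is drawn from the gate of origin.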

Sequence	polyreactivity (PSR sort gate)
QVQLVESGGGLVQAGGSLRLSCAASGRIFNRNAMGWYRQAPGKERELVASISSGGRTNYADSVKGRFTISRDNAKNTVYLLMNSLKPEDTAVYYCAAKSPRILLDYWGQGTQVTVSS	low polyreactivity
QVQLVESGGGLVQAGGSLRLSCAASGRIFNRNAMGWYRQAPGKERELVASISSGGRTNYADSVTGRFTISRDNAKNTDYLQMNSLKPEDTAVYYCAAKSPRILLDYWGQGTQVTVSS	low polyreactivity
QVQLVESGGGLVQAGGSLRLSCAASGRIFNRYAMGWYRQAPGKEREFVARITGSGGRTYYADSVKGRFTISRDNAKNTVYLQMNSLKPEDTAVYYCARDRGYQSGYDYWGQGTQVTVSS	high polyreactivity
QVQLVESGGGLVQAGGSLRLSCAASGRIFNRYAMGWYRQAPGKERELVAAISSRGGSTFYADSVKGRFTISRDIAKNTVYLQMNSLKPVDTAVYYCATAWHRGVRGRTSGAFDYWGQGTQVTVSS	high polyreactivity
QVQLVESGGGLVQAGGSLRLSCAASGRIFNRYTMGWYRQAPGKERELGAAISKSGGSTYYADSVKGRFTISRDNAKNTVYVQMNSLKPEDTAVYDCAAPPRLYRWHGGDYWGQGTQVTVSS	high polyreactivity
QVQLVESGGGLVQAGGSLRLSCAASGRIFNSNTMGWYRQAPGKERELVAAIRGSGGSTYADSVKGRFTISRDNAKNTVYLQMNSLKPEDTAVYYCAASPRRWYTPDAVSTYRMYYWGQGTQVTVSS	high polyreactivity
QVQLVESGGGLVQAGGSLRLSCAASGRIFNSNTMGWYRQAPGKERELVAAITYSGGSTYYADSVKGRFTISRDNAKNTVYLQMNSLKPEDTAVYYCAADFWEYDGPWYANDYDSWGQGTQVTVSS	low polyreactivity
QVQLVESGGGLVQAGGSLRLSCAASGRIFNSYAMGWSRQAPGKERELVAAISSGGSTYYADSVKGRFTISRDNAKNTVYLQMKRLKPEDTAVYYCAARIWNGRGRKLGYGYDYWGQGTQVTVSS	low polyreactivity
QVQLVESGGGLVQAGGSLRLSCAASGRIFNSYAMGWYIQAPGKERELVAAISSGGSTYYADSVKGRFTISRDNAKNTVYLQMNSLKPEDTAVYYCAARIWTGRGRKLGYGYDYWGQGTQVTVSS	low polyreactivity
QVQLVESGGGLVQAGGSLRLSCAASGRIFNSYAMGWYRQAPGKERELVAAINWTDVSTYYADSVKGRFTISRDNAKNTVYLQMNSLKPEDTAVYYFAAVRWGSYTLSDDYWGQGTQVTVSS	low polyreactivity
QVQLVESGGGLVQAGGSLRLSCAASGRIFNVNVMGWYRQAPGKERELVASINWSGTSTYYADSVKGRFTISRDNAKNTVYLQMNSLKPEDTAVYYCAADLALYNTLYLTLPDYYWGQGTQVTVSS	low polyreactivity
QVQLVESGGGLVQAGGSLRLSCAASGRIFNWYVMGWYRQAPGKERELVAAINSGGITKYADSVKGRFTISRDNAKNTVYLQMNSLKPEDTAVYYCAAYYRRYDYDYWGQGTQVTVSS	high polyreactivity
QVQLVESGGGLVQAGGSLRLSCAASGRIFNYNAMGWYRQAPGKERELVAAITRSTGNTYYADSVKGRFTISRDNAKNTVYLQMNSLKPEDTAVYYCAAAYAYWRKYDYWGQGTQVTVSS	high polyreactivity
QVQLVESGGGLVQAGGSLRLSCAASGRIFNYYAMGWSRQAPGKERELVAAIRTGGSTYYADSVKGRFTISRDNAKNTVYLQMNSLKPEDTAVYYCARLVYYSSPYGYWGQGTQVTVSS	high polyreactivity
QVQLVESGGGLVQAGGSLRLSCAASGRIFNYYAMGWYRQAHGKERELVAVITYSAGRTYYADSVKGRFTISRDNAKNTVYLQMNSLKPEDTAVYNCNADGWVSVSKHYYYWGQGTQVTVSS	low polyreactivity
QVQLVESGGGLVQAGGSLRLSCAASGRIFPAYAMGWYKQAPGKERELVASIRRGGITYADSVKGRFTISRDNAKNTVYLQMNSLKPEDTAVYYCNADYRGWGYHMDYWGQGTKVTVSS	low polyreactivity
QVQLVESGGGLVQAGGSLRLSCAASGRIFPAYAMGWYRKAPGKETELVAAISWRSGSTYYAHSVKGRFTISRDNAKNTVYLQMNSLKPEDTAVYYCAAEYDWPGYDYWGQGTQVTVSS	high polyreactivity
QVQLVESGGGLVQAGGSLRLSCAASGRIFPDNTMGWSRQAPGKERELVAVITYSGGSTYYADSVKGRFTISRDNAKNTVYLQMNSLKPEDTAVYYCAKTLGSQNYDFDYWGQGTQVTVSS	low polyreactivity
QVQLVESGGGLVQAGGSLRLSCAASGRIFPDNTMGWYRQAPGTERELVAAITSSGGSTYYADSVKGRFTISRDNAKNTVYLQMNSLKPEDTAVYYCAAAVKRGYAQSFISDGYGYWGQGTQVTVSS	low polyreactivity
QVQLVESGGGLVQAGGSLRLSCAASGRIFPFNAMGWYRQAPGKEREFVAAIRLSGTRTYYADSVKGRFTISRDNAKNTVYLQMNSLKPEDTAVYYCAAKYSGHYYNYDYWGQGTQVSVSS	high polyreactivity
QVQLVESGGGLVQAGGSLRLSCAASGRIFPFYDMGWYRQAPGKERELVAAISTSGGSTYYADSVKGRFTISRDNAKNTVYLQMNSLKPEDTAVYYCNAQRALRSTYDSWGQGTQVTVSS	low polyreactivity
QVQLVESGGGLVQAGGSLRLSCAASGRIFPGNAMGWYRQAPGKESELVAAISKSGGSTYYADSVKGRFTISRDNAKNTVYLQMNSLKPEDTAVYYCAKLYYPVSDQYDYYYWGQGTQVTVSS	low polyreactivity

Sequence	polyreactivity (PSR sort gate)
QVQLVESGGGLVQAGGSLRLSCAASGRIFPGNPMGWYRQATGQERELVAGISFSGGRTYYADSVKGRFTISRDNAKNTVYLQIISLKPEDTAVYYCATKYQQHCWSYDYWGQGTQVTVSS	low polyreactivity
QVQLVESGGGLVQAGGSLRLSCAASGRIFPGNTMGWYRQAPGKERELVAAISSSTGNTYYADSVKGRFTISRDNAKNTVYLQMNSLKPEDTAVYYCAARTRQISIVGYNYWGQGTQVTVSS	high polyreactivity
QVQLVESGGGLVQAGGSLRLSCAASGRIFPGYAMGLYRQAPGKERELVAAISKGGGSTSYADSVKGRFTISRDNAKNTVYFQMNSLKPEDTAVYFCAARQAWRWTYDYWGQGTQVSVSS	high polyreactivity
QVQLVESGGGLVQAGGSLRLSCAASGRIFPGYAMGWYRPAPGKERELVAAISKSGVSTYYADSVKGRFTISCDNAKNTVYLQMNSLKPEDTAVYYCAAVSYSYFSRGYRTFQLAYWGQGTQVTVSS	high polyreactivity
QVQLVESGGGLVQAGGSLRLSCAASGRIFPHYAKGWYRQAPGKERELVAAISSGGRTNYADSVKGRFTISRDNAKNTVYIQMNSLKPEDTAVYYYAVDDYVYEMDYWGQGTQVTVSS	high polyreactivity
QVQLVESGGGLVQAGGSLRLSCAASGRIFPISAMGWYRQAPGKERVLVAAIDSGGSTTYADSVKGRFTISRDNEKNTVYLQMNSLKPEDSADYYCAAKGAYPYWYPVGYRYDYWGQGTQVTVSS	low polyreactivity
QVQLVESGGGLVQAGGSLRLSCAASGRIFPIYAMGWYRQAPGKERELVAAISRTDGTTYYADSVKGRFTISRDYANNTVYLQMNSLKPEDTAVYYCAADYLRAPYYQYEYWGQGTQVTVSS	low polyreactivity
QVQLVESGGGLVQAGGSLRLSCAASGRIFPKYAMGWYRQAPGKERELVAAIRWSGGNTYYADSVKGRFTISRDNAKNTVYLQMNSLKPEDTAVYYCAATPYVSKYYYFGHDYWGQGTQVTVSS	high polyreactivity
QVQLVESGGGLVQAGGSLRLSCAASGRIFPNNAMGWYRQAPGKERELVAAITSIGGSTYYADSVKGRFTISRDNAKNTVYLQMNSLKPEDTAVYYCAARWERFVPTGRFSYYYYYWGQGTQVTVSS	high polyreactivity
QVQLVESGGGLVQAGGSLRLSCAASGRIFPPYAMGWYRQAPGKERELVAAISSSTTSTYYADSVKGRFTISRDNAKNTVYLQMNSLKPEDTADYYCAATGKGSYGYWGQGTQVTVSS	low polyreactivity
QVQLVESGGGLVQAGGSLRLSCAASGRIFPQNAMGWYRQAPGKERELVAAITSDGAITYYADSVKGRFTISRDNAKNTVYLQMNSLKPEDTAVYYCATQGRYYDYDYWGQGTQVTVSS	low polyreactivity
QVQLVESGGGLVQAGGSLRLSCAASGRIFPQYAMGWYRQAPGKERELVAGITSVGSTYYADSVKGRFTISRDNAKTTVYLQMNSLKPEDTAVFYCAAVPSRYVRANRRTYRYYYWGQGTQVTVSS	high polyreactivity
QVQLVESGGGLVQAGGSLRLSCAASGRIFPRNAMGWYRQAPGKERELVAAISQSGTSTYYADSVKGRFTISRDNAKNTVYLQMNSLKPEDTAVYYCAAVSSSGYYWGQGTQVTVSS	low polyreactivity
QVQLVESGGGLVQAGGSLRLSCAASGRIFPRNTMGWYRQAPGKQRELVAAISTRGGSTYYADSVKGRFTISRDNAKNTVYLQMNSLKPEDTAVYYCAAGRRFPAIYSTGNYWGQGTQVTVSS	high polyreactivity
QVQLVESGGGLVQAGGSLRLSCAASGRIFPRYAMGWYRQAPGKERELVAAITSSGTSTYYADSVKGRFTISRDNAKNTVYLQMNSLKPEDTAVYYCNAVKYARWGYDYWGQGTQVTVSS	high polyreactivity
QVQLVESGGGLVQAGGSLRLSCAASGRIFPRYGMGWYRQAPGKERELVADITSSGSTYADSVKGRFTISRDNAKNTVYLQMNSLKPEDTAVYYCNALYRRLSYSWRYRQLYDYWGQGTQVTVSS	high polyreactivity
QVQLVESGGGLVQAGGSLRLSCAASGRIFPRYVMGWYRQAPGKERELVAAITYRGGSTSYADSVKGRFTISRDNAKNTVYLQMNSLKPEDTAVYYCNAKSLYYNYAYDYWGQGTQVTVSS	high polyreactivity
QVQLVESGGGLVQAGGSLRLSCAASGRIFPTNAMGWYRQAPGKERELVASIDSGGSTKYADSVKGRFTISRDNAKNTVDLQMNSLKPEDTTVYYRALQVLNYDYWGQGTQVTVSS	low polyreactivity
QVQLVESGGGLVQAGGSLRLSCAASGRIFPTNAMGWYTQAHGKEREFVSAITWRGGSTYYADSVKGRFTISRDNAKNTVYLQMNSLKPEDTAVYYCAATGHIVFFRADDYGYWGQGTQVTVSS	low polyreactivity
QVQLVESGGGLVQAGGSLRLSCAASGRIFPTYTMGWYRQAPGKERELVAAISGRGGNTYYADSVKGRFTISRDNAKNTVYLQMNSLKPEDTAVYYCAARYPVRNGYWGQGTQVTVSS	high polyreactivity
QVQLVESGGGLVQAGGSLRLSCAASGRIFPVYAMGWYRQAPGKEREFVAAIRGTGTSTYYADSVKGRFTISRDNAKNTVYLQMNSLKPEDTAVYYCAASAGYAYNYWGQGTQVTVSS	low polyreactivity
